± gives the uncertainty stated by the source.
Test: amyloid nucleation score (Sup35N fusion, yeast selection) (log enrichment); library NNK2; higher = more nucleation; inactive = no reads after selection
How it was run: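 On medium lacking adenine and uracil, psi-negative yeast expressing peptides of 20 random codons fused to Sup35N were grown 7 days at 30°C after a 24-hour induction with 100 μM copper sulfate. Illumina sequencing of input and output plasmid inserts gave the reads, and sequences under 100 input reads were excluded. The nucleation score is the DiMSum log enrichment of output over input reads, centred on the mode score of non-aggregating sequences.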

## RTPPISMGKHNFVYVSSVCG
  amyloid nucleation score: -1.1 ± 0.36

## SFQPMRQFNFMINLWTVGAA
  amyloid nucleation score: 7.179 ± 0.056

## SLPPLMWGAMMRRRRRGSST
  amyloid nucleation score: 5.717 ± 0.056

## TYLNLLSNAMNVAWFS
  amyloid nucleation score: 2.83 ± 0.19

## EAWRNLYFGLSRRHRRYGSL
  amyloid nucleation score: 1.49 ± 0.18

## NVPCGYEWSFNLCIMGEASS
  amyloid nucleation score: 6.842 ± 0.049

## WMLNLDLLIFASLRGVVEGD
  amyloid nucleation score: inactive

## FWSRKCSFCFNGASVSGEVM
  amyloid nucleation score: -0.088 ± 1.1

## NSGCLSLGFRHLSNPWLHS
  amyloid nucleation score: 2.71 ± 0.096

## ILSFM
  amyloid nucleation score: -1.27 ± 1

## TIKRLLKDFPLIFLRISGST
  amyloid nucleation score: inactive

## YKLRSQ
  amyloid nucleation score: -0.184 ± 0.27

## KVMIVNRVIYTNRFNQGLTM
  amyloid nucleation score: 7.705 ± 0.051

## VLPMVRMSINIVVGCWSQKL
  amyloid nucleation score: 3.79 ± 0.081

## RWGMRYIMDWY
  amyloid nucleation score: 0.007 ± 1.1

## QDEHIMVIVKLRRYTFNWEL
  amyloid nucleation score: 2.86 ± 0.11

## GVTVKGAVIFYRY
  amyloid nucleation score: 6.47 ± 0.074

## DFFFCFRYTDLEQE
  amyloid nucleation score: -0.195 ± 0.61

## FFGICDVYSDMNFPIYTAY
  amyloid nucleation score: inactive

## FSGFNR
  amyloid nucleation score: inactive

## MMFILLYKTFCAGEWAGGMY
  amyloid nucleation score: 6.053 ± 0.04

## LVGRRWVFTDCKGFRASVNF
  amyloid nucleation score: inactive

## HRRSFGSQMYL
  amyloid nucleation score: inactive

## RVIILNTNDGSVEDMYVESQ
  amyloid nucleation score: 3.98 ± 0.049

## LGNWCGYWYFHHISSYGLMR
  amyloid nucleation score: -0.419 ± 0.5

## IRSSSSGNQSQVFSPRDNPP
  amyloid nucleation score: -0.381 ± 0.31

## GLGSPLHIWNIFVRRWYHRY
  amyloid nucleation score: inactive

## HISCMKLLSRLGYTCESLMW
  amyloid nucleation score: -1.19 ± 0.55

## VWALKGMIYN
  amyloid nucleation score: 0.33 ± 0.17

## CHCMLIG
  amyloid nucleation score: 3.46 ± 0.066

## SQCFERV
  amyloid nucleation score: 0.637 ± 0.36

## KYRYRLVQR
  amyloid nucleation score: -0.656 ± 1.1

## TFHGNYFVDTSA
  amyloid nucleation score: inactive

## GDAWGTSNIDQSWKLYLSGT
  amyloid nucleation score: -0.12 ± 0.3

## DLYSSV
  amyloid nucleation score: 0.75 ± 0.41

## RETLAFA
  amyloid nucleation score: -0.329 ± 0.33

## SFIGLETCQFSFHLIF
  amyloid nucleation score: 4.15 ± 0.092

## NYDGVVVEDNVVGTRTSVAG
  amyloid nucleation score: -0.007 ± 0.36

## WMLCLDLKANKMCLMVISME
  amyloid nucleation score: -1.32 ± 0.76

## DFMRELYFMGSRPFEMLYMY
  amyloid nucleation score: 0.102 ± 0.77

## CESENKQYKNRLEIP
  amyloid nucleation score: -2.05 ± 0.54

## LIPLIVLGGTDSFKELYGYE
  amyloid nucleation score: -0.624 ± 0.61

## KHRWII
  amyloid nucleation score: -0.287 ± 0.3

## IYVPIGATQ
  amyloid nucleation score: -1.26 ± 0.78

## CVSVPFYQVCFVGPKMEPLG
  amyloid nucleation score: 0.636 ± 0.18

## YLGCRDPTRCFLLVHVPDLY
  amyloid nucleation score: -0.127 ± 1

## RSVLWSSMVGV
  amyloid nucleation score: 1.39 ± 0.44

## LMDRLFMKCDGLAG
  amyloid nucleation score: 0.216 ± 0.53

## PCWCSVLVL
  amyloid nucleation score: 1.51 ± 0.41

## CALFLFRKVLVLIT
  amyloid nucleation score: -1.48 ± 0.55

## HINFRSVITVV
  amyloid nucleation score: -0.81 ± 0.44

## NWGMLLGCGGW
  amyloid nucleation score: 0.201 ± 0.8

## RPKSKADYGWC
  amyloid nucleation score: -0.119 ± 0.45

## LSYLML
  amyloid nucleation score: -1.03 ± 0.78

## HGDMYRRQDVVSGSNE
  amyloid nucleation score: 0.153 ± 0.49

## MGFIRINWLNSVLRSPPTHR
  amyloid nucleation score: 5.527 ± 0.044

## FNTYVVNFSRRGDIVMAKR
  amyloid nucleation score: 6.59 ± 0.085

## CHGNGQLK
  amyloid nucleation score: inactive

## DPAELQ
  amyloid nucleation score: -0.256 ± 0.79

## YRCVDYKGIEYLLYREMLTT
  amyloid nucleation score: 3.93 ± 0.046

## AFCKGYIARMRSINAGVGAG
  amyloid nucleation score: -0.144 ± 0.36

## VLCCPSKISTALKCWVGEAC
  amyloid nucleation score: 0.233 ± 0.62

## LLRRNFNYVYIIYLILSSPV
  amyloid nucleation score: inactive

## FTVDCLVVIFVYIEPMNWMG
  amyloid nucleation score: 0.672 ± 0.62

## FFRGDVQYWRLILKYLCLLM
  amyloid nucleation score: -1.28 ± 0.49

## ATMVSPTSQLAPNMYNASLT
  amyloid nucleation score: 5.97 ± 0.085

## GRWVNCKTVVLFSSDRRQAR
  amyloid nucleation score: 3.36 ± 0.14

## MSGICPDQSSLYIEDTSIWL
  amyloid nucleation score: 2.96 ± 0.068

## QSLFFVI
  amyloid nucleation score: -0.395 ± 0.48

## VWLTKIIGPVRKLVKNTLGC
  amyloid nucleation score: 5.542 ± 0.047

## SVYMLRLNYYSFVVLRQTGA
  amyloid nucleation score: -0.135 ± 0.79

## VCSTLVSFHHQRVKKVDAV
  amyloid nucleation score: -1.12 ± 0.78

## AIMYFVTCMKILMFVGNYVQ
  amyloid nucleation score: -0.118 ± 0.27

## ILLQLSIKRSVASSWLHNGR
  amyloid nucleation score: 3.61 ± 0.046

## NVLLNQNIMVLPGPLYFSIT
  amyloid nucleation score: 6.129 ± 0.054

## LSGFV
  amyloid nucleation score: -0.554 ± 0.64

## AIRRPDRSQFLAYLVSSCKF
  amyloid nucleation score: -0.218 ± 0.45

## VVRHLWMTKYCRFMFISTVY
  amyloid nucleation score: -0.898 ± 0.34

## SPCFWMLPVKKPPACR
  amyloid nucleation score: 5.082 ± 0.039

## GVCVQGMFSVSYATILYKVA
  amyloid nucleation score: 1.02 ± 0.2

## RFSDM
  amyloid nucleation score: -0.126 ± 0.31

## TCYMVWSLYC
  amyloid nucleation score: 3.93 ± 0.067

## RNLGSCY
  amyloid nucleation score: -0.08 ± 0.46

## PFHPICVYKRPFLCPE
  amyloid nucleation score: inactive

## SPRSAIFSLTTQVF
  amyloid nucleation score: 3.34 ± 0.13

## NQFVVMDQVLVMWGCFDLTR
  amyloid nucleation score: 0.417 ± 0.46

## IILRSCMYCGSLAIIKGWMS
  amyloid nucleation score: 2.91 ± 0.12
